In patent publication US20160272693A1 (ZEALAND PHARMA A S, published 2016):
*1 amine or outer side, *2 acyl side, *3 side chain or, on linkers, in order; H or OH if unused. Bridges are numbered along the chain shown (N, C = ends). [ ]: non-standard residue; d: D form. The star is where a group is joined. C20 diacid = O=C(O)CCCCCCCCCCCCCCCCCCC(=O)*; γGlu = O=C(O)[C@H](CCC(=O)[*:2])N[*:1]; Hyp = O=C(O)[C@@H]1C[C@@H](O)CN1; NMeI = CC[C@H](C)[C@H](NC)C(=O)O; Sar = CNCC(=O)O

T1: human amylin receptor 3 (hAMYR3), hCTR2 co-expressed with human receptor activity modifying protein 3 (hRAMP3) (human, UniProt P30988 25-474; O60896 24-148)
T1 sequence (looked up) 1: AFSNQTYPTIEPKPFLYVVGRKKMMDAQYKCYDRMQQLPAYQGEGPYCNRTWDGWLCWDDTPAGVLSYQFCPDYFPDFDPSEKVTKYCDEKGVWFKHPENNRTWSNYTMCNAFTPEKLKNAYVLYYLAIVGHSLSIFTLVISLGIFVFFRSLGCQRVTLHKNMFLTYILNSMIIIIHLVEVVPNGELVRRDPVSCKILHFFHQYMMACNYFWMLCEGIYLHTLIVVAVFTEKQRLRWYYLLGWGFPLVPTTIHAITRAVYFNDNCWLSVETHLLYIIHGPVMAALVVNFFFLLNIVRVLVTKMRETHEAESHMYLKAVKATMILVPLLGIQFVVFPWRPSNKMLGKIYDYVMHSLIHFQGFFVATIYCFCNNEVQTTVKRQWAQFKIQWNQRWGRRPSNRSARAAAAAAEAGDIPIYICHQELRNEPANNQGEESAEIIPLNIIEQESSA
T1 sequence (looked up) 2: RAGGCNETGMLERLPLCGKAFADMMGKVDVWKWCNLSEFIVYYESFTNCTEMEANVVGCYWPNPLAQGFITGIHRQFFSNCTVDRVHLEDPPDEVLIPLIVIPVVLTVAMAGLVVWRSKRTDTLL

B1: [19CD]-isoGlu-R-C( )-GTAT-C( )-ATERLAHFLHRSSF-Gly(Me)-A-Ile(Me)-LSSTEVGSNTP-NH2 (Compd. 15) (peptide)
peptide: {C20 diacid}-[γGlu]RCGTATCATERLAHFLHRSSF[Sar]A[NMeI]LSSTEVGSNTP-NH2
modifications: disulfide 3-8
SMILES: CC[C@H](C)[C@@H](C(=O)N[C@@H](CC(C)C)C(=O)N[C@@H](CO)C(=O)N[C@@H](CO)C(=O)N[C@H](C(=O)N[C@@H](CCC(=O)O)C(=O)N[C@H](C(=O)NCC(=O)N[C@@H](CO)C(=O)N[C@@H](CC(N)=O)C(=O)N[C@H](C(=O)N1CCC[C@H]1C(N)=O)[C@@H](C)O)C(C)C)[C@@H](C)O)N(C)C(=O)[C@H](C)NC(=O)CN(C)C(=O)[C@H](Cc1ccccc1)NC(=O)[C@H](CO)NC(=O)[C@H](CO)NC(=O)[C@H](CCCNC(=N)N)NC(=O)[C@H](Cc1c[nH]cn1)NC(=O)[C@H](CC(C)C)NC(=O)[C@H](Cc1ccccc1)NC(=O)[C@H](Cc1c[nH]cn1)NC(=O)[C@H](C)NC(=O)[C@H](CC(C)C)NC(=O)[C@H](CCCNC(=N)N)NC(=O)[C@H](CCC(=O)O)NC(=O)[C@@H](NC(=O)[C@H](C)NC(=O)[C@@H]1CSSC[C@H](NC(=O)[C@H](CCCNC(=N)N)NC(=O)CC[C@H](NC(=O)CCCCCCCCCCCCCCCCCCC(=O)O)C(=O)O)C(=O)NCC(=O)N[C@@H]([C@@H](C)O)C(=O)N[C@@H](C)C(=O)N[C@@H]([C@@H](C)O)C(=O)N1)[C@@H](C)O
B2: [19CD]-isoGlu-R-C( )-GTAT-C( )-ATERLANFLVRSSF-Gly(Me)-A-Ile(Me)-LSSTEVGSNT-Hyp-NH2 (Compd. 17) (peptide)
peptide: {C20 diacid-γGlu}-RCGTATCATERLANFLVRSSF[Sar]A[NMeI]LSSTEVGSNT[Hyp]-NH2
modifications: disulfide 2-7
SMILES: CC[C@H](C)[C@@H](C(=O)N[C@@H](CC(C)C)C(=O)N[C@@H](CO)C(=O)N[C@@H](CO)C(=O)N[C@H](C(=O)N[C@@H](CCC(=O)O)C(=O)N[C@H](C(=O)NCC(=O)N[C@@H](CO)C(=O)N[C@@H](CC(N)=O)C(=O)N[C@H](C(=O)N1C[C@H](O)C[C@H]1C(N)=O)[C@@H](C)O)C(C)C)[C@@H](C)O)N(C)C(=O)[C@H](C)NC(=O)CN(C)C(=O)[C@H](Cc1ccccc1)NC(=O)[C@H](CO)NC(=O)[C@H](CO)NC(=O)[C@H](CCCNC(=N)N)NC(=O)[C@@H](NC(=O)[C@H](CC(C)C)NC(=O)[C@H](Cc1ccccc1)NC(=O)[C@H](CC(N)=O)NC(=O)[C@H](C)NC(=O)[C@H](CC(C)C)NC(=O)[C@H](CCCNC(=N)N)NC(=O)[C@H](CCC(=O)O)NC(=O)[C@@H](NC(=O)[C@H](C)NC(=O)[C@@H]1CSSC[C@H](NC(=O)[C@H](CCCNC(=N)N)NC(=O)CC[C@H](NC(=O)CCCCCCCCCCCCCCCCCCC(=O)O)C(=O)O)C(=O)NCC(=O)N[C@@H]([C@@H](C)O)C(=O)N[C@@H](C)C(=O)N[C@@H]([C@@H](C)O)C(=O)N1)[C@@H](C)O)C(C)C
B3: [19CD]-isoGlu-R-C( )-GTAT-C( )-ATERLAHFLTRSSF-Gly(Me)-A-Ile(Me)-LSSTEVGSNT-Hyp-NH2 (Compd. 18) (peptide)
peptide: {C20 diacid}-[γGlu]RCGTATCATERLAHFLTRSSF[Sar]A[NMeI]LSSTEVGSNT[Hyp]-NH2
modifications: disulfide 3-8
SMILES: CC[C@H](C)[C@@H](C(=O)N[C@@H](CC(C)C)C(=O)N[C@@H](CO)C(=O)N[C@@H](CO)C(=O)N[C@H](C(=O)N[C@@H](CCC(=O)O)C(=O)N[C@H](C(=O)NCC(=O)N[C@@H](CO)C(=O)N[C@@H](CC(N)=O)C(=O)N[C@H](C(=O)N1C[C@H](O)C[C@H]1C(N)=O)[C@@H](C)O)C(C)C)[C@@H](C)O)N(C)C(=O)[C@H](C)NC(=O)CN(C)C(=O)[C@H](Cc1ccccc1)NC(=O)[C@H](CO)NC(=O)[C@H](CO)NC(=O)[C@H](CCCNC(=N)N)NC(=O)[C@@H](NC(=O)[C@H](CC(C)C)NC(=O)[C@H](Cc1ccccc1)NC(=O)[C@H](Cc1c[nH]cn1)NC(=O)[C@H](C)NC(=O)[C@H](CC(C)C)NC(=O)[C@H](CCCNC(=N)N)NC(=O)[C@H](CCC(=O)O)NC(=O)[C@@H](NC(=O)[C@H](C)NC(=O)[C@@H]1CSSC[C@H](NC(=O)[C@H](CCCNC(=N)N)NC(=O)CC[C@H](NC(=O)CCCCCCCCCCCCCCCCCCC(=O)O)C(=O)O)C(=O)NCC(=O)N[C@@H]([C@@H](C)O)C(=O)N[C@@H](C)C(=O)N[C@@H]([C@@H](C)O)C(=O)N1)[C@@H](C)O)[C@@H](C)O
B4: [19CD]-isoGlu-R-C( )-GTAT-C( )-ATERLAHFLKRSSF-Gly(Me)-A-Ile(Me)-LSSTEVGSNT-Hyp-NH2 (Compd. 19) (peptide)
peptide: {C20 diacid}-[γGlu]RCGTATCATERLAHFLKRSSF[Sar]A[NMeI]LSSTEVGSNT[Hyp]-NH2
modifications: disulfide 3-8
SMILES: CC[C@H](C)[C@@H](C(=O)N[C@@H](CC(C)C)C(=O)N[C@@H](CO)C(=O)N[C@@H](CO)C(=O)N[C@H](C(=O)N[C@@H](CCC(=O)O)C(=O)N[C@H](C(=O)NCC(=O)N[C@@H](CO)C(=O)N[C@@H](CC(N)=O)C(=O)N[C@H](C(=O)N1C[C@H](O)C[C@H]1C(N)=O)[C@@H](C)O)C(C)C)[C@@H](C)O)N(C)C(=O)[C@H](C)NC(=O)CN(C)C(=O)[C@H](Cc1ccccc1)NC(=O)[C@H](CO)NC(=O)[C@H](CO)NC(=O)[C@H](CCCNC(=N)N)NC(=O)[C@H](CCCCN)NC(=O)[C@H](CC(C)C)NC(=O)[C@H](Cc1ccccc1)NC(=O)[C@H](Cc1c[nH]cn1)NC(=O)[C@H](C)NC(=O)[C@H](CC(C)C)NC(=O)[C@H](CCCNC(=N)N)NC(=O)[C@H](CCC(=O)O)NC(=O)[C@@H](NC(=O)[C@H](C)NC(=O)[C@@H]1CSSC[C@H](NC(=O)[C@H](CCCNC(=N)N)NC(=O)CC[C@H](NC(=O)CCCCCCCCCCCCCCCCCCC(=O)O)C(=O)O)C(=O)NCC(=O)N[C@@H]([C@@H](C)O)C(=O)N[C@@H](C)C(=O)N[C@@H]([C@@H](C)O)C(=O)N1)[C@@H](C)O
B5: [19CD]-isoGlu-R-C( )-NTAT-C( )-ATQRLAHFLHRSVF-Gly(Me)-A-Ile(Me)-LSSTEVGSETP-NH2 (Compd. 20) (peptide)
peptide: {C20 diacid-γGlu}-RCNTATCATQRLAHFLHRSVF[Sar]A[NMeI]LSSTEVGSETP-NH2
modifications: disulfide 2-7
SMILES: CC[C@H](C)[C@@H](C(=O)N[C@@H](CC(C)C)C(=O)N[C@@H](CO)C(=O)N[C@@H](CO)C(=O)N[C@H](C(=O)N[C@@H](CCC(=O)O)C(=O)N[C@H](C(=O)NCC(=O)N[C@@H](CO)C(=O)N[C@@H](CCC(=O)O)C(=O)N[C@H](C(=O)N1CCC[C@H]1C(N)=O)[C@@H](C)O)C(C)C)[C@@H](C)O)N(C)C(=O)[C@H](C)NC(=O)CN(C)C(=O)[C@H](Cc1ccccc1)NC(=O)[C@@H](NC(=O)[C@H](CO)NC(=O)[C@H](CCCNC(=N)N)NC(=O)[C@H](Cc1c[nH]cn1)NC(=O)[C@H](CC(C)C)NC(=O)[C@H](Cc1ccccc1)NC(=O)[C@H](Cc1c[nH]cn1)NC(=O)[C@H](C)NC(=O)[C@H](CC(C)C)NC(=O)[C@H](CCCNC(=N)N)NC(=O)[C@H](CCC(N)=O)NC(=O)[C@@H](NC(=O)[C@H](C)NC(=O)[C@@H]1CSSC[C@H](NC(=O)[C@H](CCCNC(=N)N)NC(=O)CC[C@H](NC(=O)CCCCCCCCCCCCCCCCCCC(=O)O)C(=O)O)C(=O)N[C@@H](CC(N)=O)C(=O)N[C@@H]([C@@H](C)O)C(=O)N[C@@H](C)C(=O)N[C@@H]([C@@H](C)O)C(=O)N1)[C@@H](C)O)C(C)C
B6: [19CD]-isoGlu-R-C( )-NTAT-C( )-ATQRLAHFLHRVSF-Gly(Me)-A-Ile(Me)-LSSTEVGSETP-NH2 (Compd. 21) (peptide)
peptide: {C20 diacid-γGlu}-RCNTATCATQRLAHFLHRVSF[Sar]A[NMeI]LSSTEVGSETP-NH2
modifications: disulfide 2-7
SMILES: CC[C@H](C)[C@@H](C(=O)N[C@@H](CC(C)C)C(=O)N[C@@H](CO)C(=O)N[C@@H](CO)C(=O)N[C@H](C(=O)N[C@@H](CCC(=O)O)C(=O)N[C@H](C(=O)NCC(=O)N[C@@H](CO)C(=O)N[C@@H](CCC(=O)O)C(=O)N[C@H](C(=O)N1CCC[C@H]1C(N)=O)[C@@H](C)O)C(C)C)[C@@H](C)O)N(C)C(=O)[C@H](C)NC(=O)CN(C)C(=O)[C@H](Cc1ccccc1)NC(=O)[C@H](CO)NC(=O)[C@@H](NC(=O)[C@H](CCCNC(=N)N)NC(=O)[C@H](Cc1c[nH]cn1)NC(=O)[C@H](CC(C)C)NC(=O)[C@H](Cc1ccccc1)NC(=O)[C@H](Cc1c[nH]cn1)NC(=O)[C@H](C)NC(=O)[C@H](CC(C)C)NC(=O)[C@H](CCCNC(=N)N)NC(=O)[C@H](CCC(N)=O)NC(=O)[C@@H](NC(=O)[C@H](C)NC(=O)[C@@H]1CSSC[C@H](NC(=O)[C@H](CCCNC(=N)N)NC(=O)CC[C@H](NC(=O)CCCCCCCCCCCCCCCCCCC(=O)O)C(=O)O)C(=O)N[C@@H](CC(N)=O)C(=O)N[C@@H]([C@@H](C)O)C(=O)N[C@@H](C)C(=O)N[C@@H]([C@@H](C)O)C(=O)N1)[C@@H](C)O)C(C)C

The binders below were run against T1, human amylin receptor 3 (hAMYR3), hCTR2 … (assay: cell-based or functional assay).
For B1, the “hAMYR3 EC50 (nM); cAMP induction” value was 0.079 nM.
In the case of {C20 diacid-γGlu}-RCNTATCATQRLAHFLHRSSF[Sar]A[NMeI]LSSTEVGSNTP-NH2 (disulfide 2-7) [[19CD]-isoGlu-R-C( )-NTAT-C( )-ATQRLAHFLHRSSF-Gly(Me)-A-Ile(Me)-LSSTEVGSNTP-NH2 (Compd. 16)], the “hAMYR3 EC50 (nM); cAMP induction” value is reported as 0.11 nM.
In the case of B2, the “hAMYR3 EC50 (nM); cAMP induction” value is reported as 0.61 nM.
With B3 the “hAMYR3 EC50 (nM); cAMP induction” value was 0.41 nM.
With B4 the “hAMYR3 EC50 (nM); cAMP induction” value was 0.28 nM.
In the case of {C20 diacid-γGlu}-RCNTATCATQRLAHFLHRSSF[Sar]A[NMeI]LSSTEVGSETP-NH2 (disulfide 2-7) [[19CD]-isoGlu-R-C( )-NTAT-C( )-ATQRLAHFLHRSSF-Gly(Me)-A-Ile(Me)-LSSTEVGSETP-NH2 (Compd. 2)], the “hAMYR3 EC50 (nM); cAMP induction” value is reported as 0.12 nM.
B5 was tested, and the “hAMYR3 EC50 (nM); cAMP induction” value was 0.33 nM.
B6 was tested, and the “hAMYR3 EC50 (nM); cAMP induction” value was 0.23 nM.
